Assay: soluble on expression in E. coli; label from the status in PepcDB or PDB records

Row | Sequence | soluble on expression in E. coli
1 | MKGNRQRIQPKNIFQAVIDSPLSDQEKEVLTFLYQPIVGANAFSLYWLLLSETTDSEENGSLFHADLISLLDLSCQQLEEACYKLEGIGLLETYKKTDRELGDCYLYYLKAPETAARFFKDEVLALVLFNRVGQRKFDQLVQKFQPHPTKTEGYQNVSASFQEVYAFKEEQIVSEANRLTTIQETFSQKEKSKKISVSTDSFDWHYFVEGLHRLGLQLPEDEASFQEEVYVFHQLYGINELDMVDFASKSFDYYTSRILPKELVRTIHQAFDPDKKPQSTNVVTNKQAQLTVEEQQTYRYNALKMNGFSELDIQMIMDSEKNPPIQYLEALKNSRGGYTTPQERSLVKYLVAKSGLPTSVINILINYVYNIQQQPTLKAEYVNRIANEWGQSGIHSPEKAIEHVRELAKQSQTKQKQRQQNYSGKRQTVRQERLPEWADQPNDETKLSPEEQAELDRQIQEFLNQGGDQ | not soluble
2 | MKGRLLDAVPLSSLTGVGAALSNKLAKINLHTVQDLLLHLPLRYEDRTHLYPIGELLPGVYATVEGEVLNCNISFGGRRMMTCQISDGSGILTMRFFNFSAAMKNSLAAGRRVLAYGEAKRGKYGAEMIHPEYRVQGDLSTPELQETLTPVYPTTEGVKQATLRKLTDQALDLLDTCAIEELLPPELSQGMMTLPEALRTLHRPPPTLQLSDLETGQHPAQRRLILEELLAHNLSMLALRAGAQRFHAQPLSANDTLKNKLLAALPFKPTGAQARVVAEIERDMALDVPMMRLVQGDVGSGKTLVAALAALRAIAHGKQVALMAPTELLAEQHANNFRNWFAPLGIEVGWLAGKQKGKARLAQQEAIASGQVQMIVGTHAIFQEQVQFNGLALVIIDEQHRFGVHQRLALWEKGQQQGFHPHQLIMTATPIPRTLAMTAYADLDTSVIDELPPGRTPVTTVAIPDTRRTDIIDRVHHACITEGRQAYWVCTLIEESELLEAQAAEATWEELKLALPELNVGLVHGRMKPAEKQAVMASFKQGELHLLVATTVIEVGVDVPNASLMIIENPERLGLAQLHQLRGRVGRGAVASHCVLLYKTPLSKTAQIRLQVLRDSNDGFVIAQKDLEIRGPGELLGTRQTGNAEFKVADLLRDQAMIPEVQRLARHIHERYPQQAKALIERWMPETERYSNA | soluble
3 | MKGYGEMAKNNPTRITAEPGKQEIIITREFDAPRELVFKAFTDPDLYTQWIGPRGFTTALKIFEPKNGGSWQYIQKDPEGNEYAFHGVNHDVTEPERIISTFEFEGLPEKGHVILDTARFEALPGDRTKLTSHSVFQTIEDRDGMLQSGMEEGINDSYERLDELLEKMKKLEHHHHHH | soluble
4 | MKGYIHVYTGNGKGKTTAALGLATRAACAGLKVFFGQFLKGRETSELKISEFLPNFEIVQYGTPEFIVGNPSEEQIKKAKSGLADAKERLVSEKYDVVVLDELCVAIHLGLFSKEEIEDLLNVKPENVELVITGRYAPEWLIEKADLVTEMKEVKHYYQKGVVARKGIEY | soluble
5 | MKHIHIIGIGGTFMGGLAAIAKEAGFEVSGCDAKMYPPMSTQLEALGIDVYEGFDAAQLDEFKADVYVIGNVAKRGMDVVEAILNLGLPYISGPQWLSENVLHHHWVLGVAGTHGKTTTASMLAWVLEYAGLAPGFLIGGVPENFGVSARLPQTPRQDPNSQSPFFVIEADEYDTAFFDKRSKFVHYRPRTAVLNNLEFDHADIFADLGAIQTQFHYLVRTVPSEGLIVCNGRQQSLQDTLDKGCWTPVEKFGTEHGWQAGEANADGSFDVLLDGKTAGRVKWDLMGRHNRMNALAVIAAARHVGVDIQTACEALGAFKNVKRRMEIKGTANGITVYDDFAHHPTAIETTIQGLRQRVGGARILAVLEPRSNTMKLGTMKSALPVSLKEADQVFCYAGGVDWDVAEALAPLGGRLNVGKDFDAFVAEIVKNAEVGDHILVMSNGGFGGIHGKLLEALR | soluble
6 | MKHQHQHQHQHQHQQPLQEEEQAHATSLPPRASSPPQILPQLSPEQLGMIEKLVAAQQQCNRRSFSDRLRVTPWPMAPDPHSREARQQRFAHFTELAIVSVQEIVDFAKQLPGFLQLSREDQIALLKTSAIEVMLLETSRRYNPGSESITFLKDFSYNREDFAKAGLQVEFINPIFEFSRAMNELQLNDAEFALLIAISIFSADRPNVQDQLQVERLQHTYVEALHAYVSIHHPHDRLMFPRMLMKLVSLRTLSSVHSEQVFALRLQDKKLPPLLSEIWDVHE | soluble
7 | MKHVPPTVLVWFRNDLRLHDHEPLHRALKSGLAITAVYCYDPRQFAQTHQGFAKTGPWRSNFLQQSVQNLAESLQKVGNKLLVTTGLPEQVIPQIAKQINAKTIYYHREVTQEELDVERNLVKQLTILGIEAKGYWGSTLCHPEDLPFSIQDLPDLFTKFRKDIEKKKISIRPCFFAPSQLLPSPNIKLELTAPPPEFFPQINFDHRSVLAFQGGETAGLARLQDYFWHGDRLKDYKETRNGMVGADYSSKFSPWLALGCLSPRFIYQEVKRYEQERVSNDSTHWLIFELLWRDFFRFVAQKYGNKLFNRGGLLNKNFPWQEDQVRFELWRSGQTGYPLVDANMRELNLTGFMSNRGRQNVASFLCKNLGIDWRWGAEWFESCLIDYDVCSNWGNWNYTAGIGNDARDFRYFNIPKQSQQYDPQGTYLRHWLPELKNLPGDKIHQPWLLSATEQKQWGVQLGVDYPRPCVNFHQSVEARRKIEQMGVIA | soluble
8 | MKIAKFTRINAHQVQNCNNEKIAHERKMEKVFEFLAEDKKTFEASNSFERTLIFCKHDKSAMAALLTLYDSKTIFGTFSEYLITNDKTVLERERVQVNNGEKMLAICNMDFMDDFQLGLAKHYIFLDFPLKIIGIKKMLDRLNTMAQQSEQVIDIDFLTTNMDARIYQEALNMEMTMRGSQVPKWLTELVNGSSELPEDPDVIFVRTCKPDLEPLTAKPAKLPSPRQPESKPSNEASSSQLEPTSASQPPSRVDQILKSRSGLPTKDADSSSEVAPRKRKPKSPAFDIYNMKRQPDGTFLIPSHVMGFCNEDLSEDDEEPDPEYDSEEEYNWMYKLDVW | not soluble
9 | MKIAYLGPKGSFSHHVVQTAFPHEELQAFANITDVIKAYEQGLVNYSVVPVENSIEGSVHETLDYLFHQAHIQAVAEIVQPIHQQLMVVPGHTKIEKIFSHPQALAQGKKFIDEQYPEAQIEVTASTAYAARFISEHPDQPFAAVAPRSSAEEYGLELIAEDIQEMEANFTRFWVLGAEKP | not soluble
10 | MKIDLPPLRQFLNRLLALTIRMQNVIFERFELLLSQQIETAIANGIFEAGVETLRAERFTIESCESVYTHPDTGSVTNYLKVEQVQRNNIRTAVEMLEFAAKYQGQLMVNQKSSNAAVSIPTHSIFDCDGGVVPRVLLVRPQKETRVPVEQLESSTWQQVSAEEFVTAWSREVDELPRFTTDYLHLVTGILLPIWKILPQKNSRVFRLQTSDGQKILGRVVHASDIQTVTEQLGLKNKLLSPAELEHHHHHH | not soluble
11 | MKIEELIAIRRDLHRIPELGFQEFKTQQYLLNVLEQYPQDRIEIEKWRTGLFVKVNGTAPEKMLAYRADIDALSIEEQTGLPFASEHHGNMHACGHDLHMTIALGIIDHFVHHPVKHDLLFLFQPAEEGPGGAEPMLESDVLKKWQPDFITALHIAPELPVGTIATKSGLLFANTSELVIDLEGKGGHAAYPHLAEDMVVAASTLVTQLQTIISRNTDPLDSAVITVGTITGGSAQNIIAETAHLEGTIRTLSEESMKQVKERIEDVVKGIEIGFRCKGKVTYPSVYHQVYNTSGLTEEFMSFVAEHQLATVIEAKEAMTGEDFGYMLKKYPGFMFWLGADSEHGLHHAKLNPDENAIETAVHVMTGYFSVYAN | not soluble
12 | MKIESAVEISKTATDFHTALDASSVIGSDRVDQLKSILNLTKSDTALLESNITQAKQLKITLDAQLQQRKALVDEYKSKLTVLEGSYMRKSAEVQRLQNELQNAQKAHAMKATTAPNEKNQANCSIS | not soluble
13 | MKIMIFICGEGLGHTSRCLALGKELLNAGHEIKFGAYGYSKELVEKTGYTAQEIPSEIKLVGKAGSLDLTGSIEATLKSAQLLGGPKLLKLLREFKPDVVVSDSYYLGTLAAMVLKLPVYLIINQSNMEEFFKNRGVPVRIIGKLTKKFYKEVFEKTDKILEHHHHHH | not soluble
14 | MKINTALGVAAGKSAHYLLSKMGRGSTYPGSLALKFDKDILDTIAKDYEIVVVTGTNGKTLTTALTVGILKEAFGQVVTNPSGANMITGIVSTFLTAKKSKSGKKIAVLEIDEASLPRITQYIKPSLFVFTNIFRDQMDRYGEIYTTYQMILDGAANAPQATILANGDSPLFNSKSVTNPVQFYGFNTDKHEPRLAHYNTEGILCPKCQAILTYRLNTYANLGDYTCPNCDFERPNLDYALTRLTHLTNTSSGFVIDGQQYNINVGGLYNIYNALAAVSVAEYFGVEPSQIKDGFDKSRAVFGRQETFTIGNKKCTLVLIKNPVGASQALDMIKLAPYPFSLSVLLNANYADGIDTSWIWDANFETILTMNIPEIFAGGVRHSEIARRLRVTGYDEKRIKQADKLQDIMTMIEQQETEHAYILATYTAMLEFREILANHNAIRKEMN | not soluble
15 | MKIRSQVGMVLNLDKCIGCHTCSVTCKNVWTGREGMEYAWFNNVETKPGIGYPKNWEDQQEWQGGWVRDVNGKIRPRLGGKMGVISKIFANPVIPQIDDYYEPFTFDYQHLHNAPESKHQPTARPRSLIDGKRMDKVIWGPNWEELLGGEFEKRARDRNFDNIQKEMYGQFENTFMMYLPRLCEHCLNPSCVATCPSGAIYKREEDGIVLIDQDKCRGWRLCISGCPYKKIYFNWKSGKSEKCIFCYPRIESGQPTVCSETCVGRIRYLGVLLYDADRIEEAASTEHETDLYERQCDVFLNPHDPAVIEEALKQGIPQNVIDAAQRSPVYKMAMDWKLALPLHPEYRTLPMVWYVPPLSPIQSYADAGGLPHNGNILPAVETLRIPVQYLANMLSAGDTGPVIRALKRMMAMRHYMRSQTVEGVTDTRAIEEVGLSIQQVEEMYRYLAIANYEDRFVIPTSHREMARDAFPERNGCGFTFGDGCHGSDTKFNLFNSSRIDAINITEVRDKAEGE | not soluble
16 | MKISIICPLYNAENYIMSLHNKILEQEKPEGTEVEVSYVLTRCKDKTEEMLKNMNLQYTLIEPKDFSHSKTREMMAFKSTGDIIVFISQDVMMKNNFWLKNLVQPIIDGECEASFSRQLCTNNTIEKYIREKNYPEESRVVSKKDINKYGLLTFFYSDASSAVKTSVYKELNGYDNKRLLINEDMYFAEKLIQAGYRIKYCSDSEVYHSHVFTLKSLYERYFDTGVFFRQNSQFLNYKGNKSGKDLAIHVLKRSLEDKNFKVTLNILPNFGARFIGSFLGKKYESLPRSFVMASSMSKKVYSQILEHHHHHH | soluble
17 | MKITAIHLYAIRLPLRNPFVISYGSYSDMPSIIVKMETDEGIIGYGEGVADDHVTGESWESTFHTLKHTLTPALIGQNPMNIEKIHDMMDNTIYGVPTAKAAIDIACFDIMGKKLNQPVYQLIGGRYHEEFPVTHVLSIADPENMAEEAASMIQKGYQSFKMKVGTNVKEDVKRIEAVRERVGNDIAIRVDVNQGWKNSANTLTALRSLGHLNIDWIEQPVIADDIDAMAHIRSKTDLPLMIDEGLKSSREMRQIIKLEAADKVNIKLMKCGGIYPAVKLAHQAEMAGIECQVGSMVESSVASSAGFHVAFSKKIITSVELTGPLKFTKDIGNLHYDVPFIRLNEKPGLGIEINEDTLQELTVFQDIVR | soluble
18 | MKITHCKLKKEVQKEPLRSFVPEVTARSAADILGIHPDSAALFYRKIRTVTNHRLALAADEVFECPAGPGASCFGVRRKGRRGRGAAGKAVVFGIPKRNGRAYTVAEDDAEPETLPPAVKKKIMPDGIVYADSPGSRGKSDAGGFTRCRINRSKEFADRRNHINGIGNFWNQAKRALRKYNGIDRKPFPPLLRECEFRFNFGTPSRQLKILRDRCGILEHHHHHH | soluble
19 | MKIVLIGAGNVATHLGIALQKAGCLILQVYSRTEESASALAARLSVDYTIVPDEIRRDADLYIVALKDAVLRQLAPVLVKGREQALFVHTAGSMSMDLWKGLVKRYGVLYPMQTFSKQREVDFNTVPFFIEASAPAEVELLRMVAVRLSPKVYEVTSGQRRYLHLAAVFACNFANHMYALSSHILEKQGIPFEVMLPLIDETAGKVHELSPTQAQTGPAVRYDENVISKHLEMLADEESLQELYEKISKSIHNLPLSVIQANKEGKNS | not soluble
